# Key:
# Assay in all cases: cell-based or functional assay
# [1] = molecular target: HIV-1 Env of pseudovirus REJO4541.67 (HIV-1)
# [2] = molecular target: HIV-1 Env of pseudovirus CNE30 (HIV-1)
# [3] = molecular target: HIV-1 Env of pseudovirus 1394C9G1(Rev-) (HIV-1)
# [4] = molecular target: HIV-1 Env of pseudovirus HIV-16845-2.22 (HIV-1)
# [5] = molecular target: HIV-1 Env of pseudovirus WITO4160.33 (HIV-1)
# [6] = molecular target: HIV-1 Env of pseudovirus 1056_10_TA11_1826 (HIV-1)
# [7] = molecular target: HIV-1 Env of pseudovirus HIV-0013095-2.11 (HIV-1)
# [8] = molecular target: HIV-1 Env pseudovirus X1193_c1 (HIV-1)
# [9] = molecular target: HIV-1 Env pseudovirus 1056_10_TA11_1826 (HIV-1)
# [10] = molecular target: HIV-1 Env pseudovirus 231965.c01 (HIV-1)
# [11] = molecular target: HIV-1 Env pseudovirus TRO.11 (HIV-1)
# [12] = molecular target: HIV-1 Env pseudovirus Du172.17 (HIV-1)
# [13] = molecular target: HIV-1 Env pseudovirus T250-4 (HIV-1)
# [14] = molecular target: HIV-1 Env pseudovirus 6244_13_B5_4576 (HIV-1)
# [15] = molecular target: HIV-1 Env pseudovirus 7030102001E5(Rev-) (HIV-1)
# [16] = molecular target: HIV-1 Env pseudovirus Ce1176_A3 (HIV-1)
# [17] = molecular target: HIV-1 Env pseudovirus ZM197M.PB7 (HIV-1)
# [18] = molecular target: HIV-1 Env pseudovirus BF1266.431a (HIV-1)
# [19] = molecular target: HIV-1 Env pseudovirus CAP210.2.00.E8 (HIV-1)
substance,measurement,setting,value
NIH 45-46 (antibody),IC50,[1],0.003 µg/mL
same,IC80,[1],0.01 µg/mL
same,IC50,[2],0.34 µg/mL
same,IC80,[2],1.48 µg/mL
same,IC50,[3],0.09 µg/mL
same,IC80,[3],0.38 µg/mL
same,IC50,[4],2.05 µg/mL
same,IC80,[4],12.1 µg/mL
same,IC50,[5],0.01 µg/mL
same,IC80,[5],0.08 µg/mL
same,IC50,[6],0.12 µg/mL
same,IC80,[6],0.59 µg/mL
same,IC50,[7],0.01 µg/mL
same,IC80,[7],0.03 µg/mL
PGDM1400 (antibody),neutralization IC50,[1],0.028 µg/mL
same,neutralization IC80,[1],0.992 µg/mL
same,neutralization IC50,[2],> 50 µg/mL
same,neutralization IC80,[2],> 50 µg/mL
same,neutralization IC50,[3],< 0.001 µg/mL
same,neutralization IC80,[3],0.004 µg/mL
same,neutralization IC50,[4],> 50 µg/mL
same,neutralization IC80,[4],> 50 µg/mL
same,neutralization IC50,[5],< 0.001 µg/mL
same,neutralization IC80,[5],0.008 µg/mL
same,neutralization IC50,[6],3.26 µg/mL
same,neutralization IC80,[6],11.8 µg/mL
same,neutralization IC50,[7],0.003 µg/mL
same,neutralization IC80,[7],0.012 µg/mL
PGT128 (antibody),neutralization IC50,[1],> 50 µg/mL
same,neutralization IC80,[1],> 50 µg/mL
same,neutralization IC50,[2],2.06 µg/mL
same,neutralization IC80,[2],12.6 µg/mL
same,neutralization IC50,[3],0.011 µg/mL
same,neutralization IC80,[3],0.034 µg/mL
same,neutralization IC50,[4],0.181 µg/mL
same,neutralization IC80,[4],0.834 µg/mL
same,neutralization IC50,[5],> 50 µg/mL
same,neutralization IC80,[5],> 50 µg/mL
same,neutralization IC50,[6],< 0.001 µg/mL
same,neutralization IC80,[6],0.008 µg/mL
same,neutralization IC50,[7],> 50 µg/mL
same,neutralization IC80,[7],> 50 µg/mL
PGT145 (antibody),neutralization IC50,[1],< 0.001 µg/mL
same,neutralization IC80,[1],0.001 µg/mL
same,neutralization IC50,[2],> 50 µg/mL
same,neutralization IC80,[2],> 50 µg/mL
same,neutralization IC50,[3],0.001 µg/mL
same,neutralization IC80,[3],0.005 µg/mL
same,neutralization IC50,[4],> 50 µg/mL
same,neutralization IC80,[4],> 50 µg/mL
same,neutralization IC50,[5],< 0.001 µg/mL
same,neutralization IC80,[5],0.001 µg/mL
same,neutralization IC50,[6],0.23 µg/mL
same,neutralization IC80,[6],0.938 µg/mL
same,neutralization IC50,[7],9.27 µg/mL
same,neutralization IC80,[7],> 50 µg/mL
PGT151 (antibody),neutralization IC50,[1],0.018 µg/mL
same,neutralization IC80,[1],0.119 µg/mL
same,neutralization IC50,[2],> 50 µg/mL
same,neutralization IC80,[2],> 50 µg/mL
same,neutralization IC50,[3],0.022 µg/mL
same,neutralization IC80,[3],0.733 µg/mL
same,neutralization IC50,[4],> 50 µg/mL
same,neutralization IC80,[4],> 50 µg/mL
same,neutralization IC50,[5],0.002 µg/mL
same,neutralization IC80,[5],0.021 µg/mL
same,neutralization IC50,[6],0.008 µg/mL
same,neutralization IC80,[6],0.048 µg/mL
same,neutralization IC50,[7],> 50 µg/mL
same,neutralization IC80,[7],> 50 µg/mL
VRC01 (antibody),IC50 (Titer in TZM.bl cells),[8],0.11 µg/mL
same,IC80 (Titer in TZM.bl cells),[8],0.32 µg/mL
same,IC50 (Titer in TZM.bl cells),[9],0.92 µg/mL
same,IC80 (Titer in TZM.bl cells),[9],3.28 µg/mL
same,IC50 (Titer in TZM.bl cells),[10],0.34 µg/mL
same,IC80 (Titer in TZM.bl cells),[10],1.2 µg/mL
same,IC50 (Titer in TZM.bl cells),[11],0.21 µg/mL
same,IC80 (Titer in TZM.bl cells),[11],0.83 µg/mL
same,IC50 (Titer in TZM.bl cells),[12],> 50 µg/mL
same,IC80 (Titer in TZM.bl cells),[12],> 50 µg/mL
same,IC50 (Titer in TZM.bl cells),[13],> 50 µg/mL
same,IC80 (Titer in TZM.bl cells),[13],> 50 µg/mL
same,IC50 (Titer in TZM.bl cells),[14],0.21 µg/mL
same,IC80 (Titer in TZM.bl cells),[14],0.53 µg/mL
same,IC50 (Titer in TZM.bl cells),[15],0.54 µg/mL
same,IC80 (Titer in TZM.bl cells),[15],2.08 µg/mL
same,IC50 (Titer in TZM.bl cells),[16],2.25 µg/mL
same,IC80 (Titer in TZM.bl cells),[16],8.1 µg/mL
same,IC50 (Titer in TZM.bl cells),[17],0.36 µg/mL
same,IC80 (Titer in TZM.bl cells),[17],1.6 µg/mL
same,IC50 (Titer in TZM.bl cells),[18],0.07 µg/mL
same,IC80 (Titer in TZM.bl cells),[18],0.23 µg/mL
same,IC50 (Titer in TZM.bl cells),[19],> 50 µg/mL
same,IC80 (Titer in TZM.bl cells),[19],> 50 µg/mL

# Reference: patent publication US20240117018A1
